Source: US20250129150A1 (APOGEE THERAPEUTICS, published 2025)
Like-named read-outs stand apart in the source and are kept apart here.

Assays:
hIL-13 [1] = target: T1, hIL-13 (human, UniProt P35225 35-146, limits assumed); assay: ELISA
T1 construct: IL-13 as used in the cell assays, the ELISA, the binning study and HDX-MS/XL-MS; also called human IL-13; Hu IL-13

hIL-13 [2] = target: T1, hIL-13; assay: cell-based or functional assay
hIL-13 [3] = target: T1, hIL-13; assay: cell-based or functional assay; remark: listed apart in the source
hIL-13 [4] = target: T1, hIL-13; assay: cell-based or functional assay; remark: listed apart in the source
hIL-13 [5] = target: T1, hIL-13; assay: cell-based or functional assay; remark: listed apart in the source
hIL-13 [6] = target: T1, hIL-13; assay: cell-based or functional assay; remark: listed apart in the source
hIL-13 [7] = target: T1, hIL-13; assay: cell-based or functional assay; remark: listed apart in the source
[8] = target: T2, Recombinant Human IL-13 Protein, His Tag (Acro Cat. IL3-H52H4) (human, UniProt P35225 35-146); assay: SPR (Biacore 8K), mAb captured on Protein G chip, IL-13 as analyte
T2 construct: Bought protein; also called Hu IL-13; not shown: His Tag
T2 sequence (P35225 other isoform, or with tags, fused parts or gaps limits assumed): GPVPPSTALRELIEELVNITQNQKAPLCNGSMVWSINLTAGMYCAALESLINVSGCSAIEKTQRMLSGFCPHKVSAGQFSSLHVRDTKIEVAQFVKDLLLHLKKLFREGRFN
Method: Samples were injected in a multi-cycle manner over freshly captured mAb, by regenerating the capture surfaces with injection of glycine pH 1.5 for 30 sec at a flow rate of 30 μL/min. The data was processed and analyzed with Biacore Insight Evaluation Software Version 2.0.15.12933 (GE Healthcare) as follows. […] The responses from the two buffer blank injections were then subtracted from the reference subtracted data (2-1) to yield double-referenced data, which were fit to an 1:1 binding model to determine the apparent association (ka) and dissociation rate constants (kd). Their ratio provided the apparent equilibrium dissociation constant or affinity constant (KD=kd/ka).

[9] = target: T2, Recombinant Human IL-13 Protein, His …; assay: as above; remark: listed apart in the source
Method in brief: (§1)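 Antigen injected multi-cycle over freshly captured mAb; surfaces regenerated with glycine pH 1.5 for 30 sec. Double-referenced sensorgrams fit to a 1:1 binding model for apparent ka and kd; KD = kd/ka.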

[10] = target: T3, Recombinant Cynomolgus IL-13 Protein, His Tag (SINO BIOLOGICAL, Cat. 11057-C07H) (cynomolgus monkey, UniProt Q5I6E4 19-132 (Macaca thibetana entry)); assay: as above
T3 construct: also called Cyno IL-13; cynomolgus monkey IL-13
T3 chain: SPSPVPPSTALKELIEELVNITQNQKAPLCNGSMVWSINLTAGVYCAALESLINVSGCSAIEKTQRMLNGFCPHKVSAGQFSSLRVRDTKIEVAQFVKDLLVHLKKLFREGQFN
Method in brief: as §1

recombinant human FcRn = target: T4, recombinant human FcRn (human, UniProt P55899 24-297; P61769 21-119); assay: SPR, antibody captured on anti-kappa chip, FcRn as analyte, pH 5.8; pH 5.8
T4 construct: also called neonatal Fc receptor
T4 sequence (P55899 24-297 limits assumed, chain 1 of 2): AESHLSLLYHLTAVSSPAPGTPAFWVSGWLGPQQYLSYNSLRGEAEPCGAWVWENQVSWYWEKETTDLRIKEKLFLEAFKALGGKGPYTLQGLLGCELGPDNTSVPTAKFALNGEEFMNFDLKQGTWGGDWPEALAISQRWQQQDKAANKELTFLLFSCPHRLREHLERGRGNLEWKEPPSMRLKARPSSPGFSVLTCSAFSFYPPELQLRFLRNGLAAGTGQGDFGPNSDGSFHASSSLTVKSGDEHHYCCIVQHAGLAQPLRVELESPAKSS
T4 sequence (P61769 21-119 limits assumed, chain 2 of 2): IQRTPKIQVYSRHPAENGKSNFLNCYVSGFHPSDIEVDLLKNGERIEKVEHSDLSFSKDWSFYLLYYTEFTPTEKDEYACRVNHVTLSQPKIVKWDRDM
Method: (§2) Binding affinity (KD) of antibodies to Fc receptors and C1q were determined through surface plasmon resonance (SPR) using a Biacore 8K. Briefly, an SPR chip functionalized with an anti-kappa light-chain antibody was used to capture purified antibodies normalized to […], at a flow rate of 10 uL/min for 90 seconds or 120 seconds. A paired channel with only buffer was used as reference. Subsequently, varying concentrations of recombinant human CD32a (167H), CD32a (167R), CD32b, CD16a (176V), CD16a (176F), FcRn, CD64, and C1q were injected over the surface with captured purified antibody as well as the reference channel. Regeneration of the chip between different concentrations of different antigens were performed with 10 mM Glycine HCl, pH 1.5 and antibody was again captured. Association and dissociation rate constants were subsequently determined through fitting to a 1:1 Langmuir binding model or steady-state analysis model, whichever applicable, using the Biacore Insight Evaluation Software from which a KD value was derived.

[11] = target: T5, recombinant human CD32a (167R) (human, UniProt P12318 36-218); assay: SPR, antibody captured on anti-kappa chip, recombinant human receptor as analyte
T5 sequence (looked up): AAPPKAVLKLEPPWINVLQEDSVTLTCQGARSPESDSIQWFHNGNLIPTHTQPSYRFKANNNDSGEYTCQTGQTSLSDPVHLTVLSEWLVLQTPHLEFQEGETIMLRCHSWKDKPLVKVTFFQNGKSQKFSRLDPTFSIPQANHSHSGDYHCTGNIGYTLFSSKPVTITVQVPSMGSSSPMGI
Method: as §2

recombinant human CD32b = target: T6, recombinant human CD32b (human, UniProt P31994 46-217); assay: as above
T6 sequence (looked up): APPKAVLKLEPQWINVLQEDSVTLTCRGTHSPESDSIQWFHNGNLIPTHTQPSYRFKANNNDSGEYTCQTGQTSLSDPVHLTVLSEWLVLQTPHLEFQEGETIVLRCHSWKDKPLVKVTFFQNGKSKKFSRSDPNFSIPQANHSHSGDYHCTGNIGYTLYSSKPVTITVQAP
Method: as §2

[12] = target: recombinant human CD16a (176V) (human, UniProt P08637 17-208); assay: as above
Chain of recombinant human CD16a (176V) (P08637 17-208 F176V): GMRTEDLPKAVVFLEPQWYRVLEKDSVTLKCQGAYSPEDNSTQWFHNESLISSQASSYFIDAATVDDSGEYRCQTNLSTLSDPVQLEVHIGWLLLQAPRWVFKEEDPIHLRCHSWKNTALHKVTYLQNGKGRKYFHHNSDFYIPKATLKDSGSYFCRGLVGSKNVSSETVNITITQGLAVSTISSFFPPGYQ
Method: as §2

recombinant human CD64 = recombinant human CD64 (human, UniProt P12314 16-288); assay: as above
Chain of recombinant human CD64 (P12314 16-288 limits assumed): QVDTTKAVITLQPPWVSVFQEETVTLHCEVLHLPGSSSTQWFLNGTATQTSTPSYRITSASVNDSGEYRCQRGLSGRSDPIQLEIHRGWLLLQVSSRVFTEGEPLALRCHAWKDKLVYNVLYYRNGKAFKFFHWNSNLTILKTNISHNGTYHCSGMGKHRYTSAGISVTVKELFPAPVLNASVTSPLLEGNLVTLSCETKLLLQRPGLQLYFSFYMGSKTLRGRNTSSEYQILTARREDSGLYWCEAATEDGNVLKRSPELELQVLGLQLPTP
Method: as §2

recombinant human C1q = target: T7, recombinant human C1q (human, UniProt P02745 23-245; P02746 28-253; P02747 29-245, limits assumed); assay: SPR, antibody captured on anti-kappa chip, C1q as analyte; signal relative to rituximab
T7 construct: subunit composition is from general knowledge
T7 sequence (P02745 23-245 limits assumed, chain 1 of 3): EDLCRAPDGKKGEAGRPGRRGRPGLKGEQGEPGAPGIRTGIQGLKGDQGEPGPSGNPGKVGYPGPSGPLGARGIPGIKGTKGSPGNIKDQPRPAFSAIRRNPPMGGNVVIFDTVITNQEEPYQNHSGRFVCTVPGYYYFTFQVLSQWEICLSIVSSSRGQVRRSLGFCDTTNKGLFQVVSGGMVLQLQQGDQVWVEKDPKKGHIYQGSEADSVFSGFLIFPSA
T7 sequence (P02746 28-253 limits assumed, chain 2 of 3): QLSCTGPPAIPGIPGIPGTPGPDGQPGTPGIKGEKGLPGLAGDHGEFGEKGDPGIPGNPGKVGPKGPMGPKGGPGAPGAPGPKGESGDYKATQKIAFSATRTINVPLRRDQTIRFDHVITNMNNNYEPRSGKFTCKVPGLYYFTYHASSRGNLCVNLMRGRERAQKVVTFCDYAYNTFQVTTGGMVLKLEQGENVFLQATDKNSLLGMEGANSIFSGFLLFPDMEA
T7 sequence (P02747 29-245 limits assumed, chain 3 of 3): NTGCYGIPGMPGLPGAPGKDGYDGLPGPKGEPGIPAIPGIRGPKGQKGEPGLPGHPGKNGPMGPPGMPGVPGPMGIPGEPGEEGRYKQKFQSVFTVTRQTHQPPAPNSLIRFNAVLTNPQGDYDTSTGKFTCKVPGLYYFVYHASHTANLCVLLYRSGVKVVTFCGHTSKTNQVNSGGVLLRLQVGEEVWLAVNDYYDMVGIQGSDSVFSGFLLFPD
Method: as §2

biotinylated hIL-13 = biotinylated hIL-13 (human, UniProt P35225 35-146, limits assumed, biotinylated (site not stated)); assay: FACS; blockade of biotinylated hIL-13 (0.05 ug/mL) binding to HEK293 cells expressing hIL-13Rα1/hIL-4Rα
Chain of biotinylated hIL-13 (P35225 other isoform, or with tags, fused parts or gaps limits assumed): as the sequence (P35225 other isoform, or with tags, fused parts or gaps limits assumed) above
Method in brief: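 HEK293 cells stably co-expressing hIL-13Rα and hIL-4Rα (200,000/well) stained at 4 °C for 1 h, then a further 1 h at 4 °C in the dark. Median fluorescence intensity read by flow cytometry.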

T1 sequence (P35225 other isoform, or with tags, fused parts or gaps limits assumed): as above

B1: Construct 133 (antibody, human IgG1, kappa, L234A L235A)
heavy: EVQLQESGPGLVKPSETLSLTCTVSGFSLNAYSVNWIRQPPGKGLEWLGMIWGDGKIVYNSALKSRLTISKDSSKNQVSLKLSSVTAADTAVYYCAGDGYYPYAMDNWGQGTTVTVSSASTKGPSVFPLAPSSKSTSGGTAALGCLVKDYFPEPVTVSWNSGALTSGVHTFPAVLQSSGLYSLSSVVTVPSSSLGTQTYICNVNHKPSNTKVDKKVEPKSCDKTHTCPPCPAPEAAGGPSVFLFPPKPKDTLYITREPEVTCVVVDVSHEDPEVKFNWYVDGVEVHNAKTKPREEQYNSTYRVVSVLTVLHQDWLNGKEYKCKVSNKALPAPIEKTISKAKGQPREPQVYTLPPSRDELTKNQVSLTCLVKGFYPSDIAVEWESNGQPENNYKTTPPVLDSDGSFFLYSKLTVDKSRWQQGNVFSCSVMHEALHNHYTQKSLSLSPG
light: DIQLTQSPSSLSASVGDRVTITCRASKSVDSYGNSFMHWYQQKPGKAPKLLIYLASNLESGVPSRFSGSGSGTDFTLTISSLQPEDFATYYCQQNNEDPRTFGGGTKVEIKRTVAAPSVFIFPPSDEQLKSGTASVVCLLNNFYPREAKVQWKVDNALQSGNSQESVTEQDSKDSTYSLSSTLTLSKADYEKHKVYACEVTHQGLSSPVTKSFNRGEC
notes: also called HC1; LC6
For B1, the Kd (hIL-13 [1]) was 0.019 nM, the “TF-1 Proliferation Inhibition IC50” value (hIL-13 [2]) was 0.16 nM and the “pSTAT6 Inhibition IC50 (HT-29 cells)” value (hIL-13 [3]) was 0.28 nM. For the same binder, the “TARC Inhibition IC50 (A549 cells)” value (hIL-13 [4]) was 0.86 nM, the “TF-1 Proliferation Inhibition IC50” value (hIL-13 [5]) was 0.15 nM and the “CD23 Expression Inhibition IC50 (human PBMCs)” value (hIL-13 [6]) was 0.85 nM. For the same binder, the “pSTAT6 Inhibition IC50 (human PBMCs)” value (hIL-13 [6]) was 0.44 nM, the “CCL2 Secretion IC50 (HaCaT cells)” value (hIL-13 [7]) was 0.077 nM and the “CCL26 Secretion IC50 (HaCaT cells)” value (hIL-13 [7]) was 0.06 nM. For the same binder, the “NTRK1 Expression IC50 (HaCaT cells)” value (hIL-13 [7]) was 0.062 nM, the Kd [8] was 0.077 nM and the Kd [9] was 0.0777 nM. For the same binder, the Kd [10] was 0.208 nM, the Kd (recombinant human FcRn) was 150 nM and the binding result [11] was “no binding”. B1: no binding (recombinant human CD32b); no binding [12]; no binding (recombinant human CD64). The “C1q (Signal Relative to Rituximab)” value (recombinant human C1q) was 15.9% and the IC50 (biotinylated hIL-13) was 0.89 nM.
